Data reported in patent US20190276542A1 (QILU PUGET SOUND BIOTHERAPEUTICS, published 2019).
Where two headings read alike, the source gives them in different places.

Legend:
[1] = target: T1, human CTLA4 expressed on Jurkat T cells (human, UniProt P16410 36-223); assay: cell-based or functional assay
[2] = target: T1, human CTLA4 expressed on Jurkat T cells; assay: cell-based or functional assay; remark: listed apart in the source
[3] = target: T1, human CTLA4 expressed on Jurkat T cells; assay: flow cytometry on Jurkat T cells expressing hCTLA4
Source text: After washing, the surface-bound anti-hCTLA4 antibodies were detected with a polyclonal anti-hlgG (Fc-specific) antibody labeled with fluorescein isothiocyanate (FITC)(anti-hlgG-FITC). Binding of anti-hCTLA4 antibodies were detected by flow cytometric analysis. The results were reported a geometric mean fluorescence intensity (MFI) using FlowJo software (FLOWJO, L.L.C., Ashland, Oreg., USA).

[4] = target: T2, CTLA4-ECD_Fc, soluble hCTLA4 comprising the extracellular domain of hCTLA4 fused to an Fc fragment (human, UniProt P16410 36-161); assay: flow cytometry; inhibition of CTLA4-ECD_Fc binding to Raji cells (hB7-1/hB7-2)
T2 construct: extracellular domain; not shown: Fc fragment
Procedure: In a first assay, inhibition of hCTLA4 binding to hB7-1 and hB7-2 expressed on the surface of Raji cells was assessed. Raji cells, which are human cells, express high levels of hB7-1 and hB7-2. […] After 30 minutes, 1×10⁵ Raji cells were added to each well and incubated for another 30 minutes. […] IC₅₀'s were calculated using GraphPad Prism software (GraphPad, Inc., La Jolla, Calif., USA).

[5] = target: T1, human CTLA4 expressed on Jurkat T cells; assay: cell-based or functional assay; remark: listed apart in the source
[6] = target: T3, human PD1 expressed on a cell surface (human, UniProt Q15116 25-288); assay: cell-based or functional assay
[7] = target: T3, human PD1 expressed on a cell surface; assay: cell-based or functional assay; remark: listed apart in the source
[8] = target: T3, human PD1 expressed on a cell surface; assay: cell-based or functional assay; remark: listed apart in the source
[9] = target: T3, human PD1 expressed on a cell surface; assay: cell-based or functional assay; remark: listed apart in the source
[10] = target: T3, human PD1 expressed on a cell surface; assay: flow cytometry on OKT3-activated human T cells, CD4+ cells
Procedure: (§1) The following experiment tested whether the selected anti-hPD1 antibodies can bind to native PD1 expressed on the surface of activated T cells. Human PBMCs were pre-activated with OKT3 (an anti-CD3 antibody) at a concentration of 1 μg/ml. After three days, the PBMCs, which were mostly activated T cells at this time, were distributed into a 96 well microtiter plate using 0.1×10⁶ cells/well. […] The antibody bound to CD4⁺ T cells and CD4⁻ T cells (which were predominately CD8⁺ T cells) was detected using anti-hlgG-FITC and an anti-CD4 antibody labeled with allophycocyanin (anti-CD4-APC).
(§2) The samples were analyzed by flow cytometry (FACScalibur, BD), and binding was reported as an MFI. EC₅₀'s for binding were calculated using GraphPad Prism software.

[11] = target: T3, human PD1 expressed on a cell surface; assay: flow cytometry on OKT3-activated human T cells, CD4- cells
Procedure: as §1, §2

[12] = target: T4, soluble, biotinylated PD1 protein containing only the extracellular region (human, UniProt Q15116 25-170, biotinylated in vivo (site not stated)); assay: …; inhibition of GST-hPDL1 binding to biotinylated hPD1
T4 construct: extracellular domain; also called biotinylated hPD1
Procedure: Finally, 10 μL of streptavidin donor beads (which can bind the biotinylated hPD1) were added to bring the final concentration of donor beads to 16 μg/mL, and the plates were incubated in the dark at RT for one hour. […] An antibody that inhibits this interaction or binding will decrease the signal, since the inhibiting antibody prevents physical proximity of the donor and acceptor beads.
Plates were read in an EnVision 2103 Multilabel Reader (PerkinElmer) using illumination at a wavelength of 680 nm and reading emission at a wavelength of about […]. The results were plotted and IC₅₀ values were calculated using GraphPad Prism software.

[13] = target: T5, recombinant human (rhu) PD1 (extracellular domain only) (human, UniProt Q15116 25-170); assay: SPR (Biacore 3000), antibody captured by anti-human IgG, PD1 as analyte
T5 construct: extracellular domain; also called recombinant human PD1
Procedure: (§3) Biosensor analysis was conducted at 25° C. in an HBS-EP buffer (10 mM HEPES, 150 mM NaCl, 3 mM EDTA, 0.005% polysorbate 20, 0.1% bovine serum albumin, pH 7.4) using a Biacore 3000 optical biosensor equipped with a CM5 sensor chip according to the manufacturer's general protocol. The auto sampler was maintained at ambient temperature. […] About 8000 resonance units (RU) of this antibody was immobilized on these chips. Flow cell 4 was used to analyze captured anti-hPD1 antibodies (about 100 to 200 RU were captured on flow cell 4), while flow cell 3 was used as the reference flow cell. Both analytes, recombinant human PD1 and recombinant cynomolgus PD1, were prepared in five concentrations for each antibody tested. The analyte concentrations tested ranged from 1.2 to 300 nM. All analyte dilutions were prepared in HPS-EP buffer. Each of the five analyte sample concentrations were run in duplicate and in a mixed order, as a means of assessing the reproducibility of binding and mitigating systematic bias to the order of injection. Multiple blank (running buffer) injections also were run and used to assess and subtract system artifacts. The association phase and dissociation phase for all analyte concentrations were monitored for 300 seconds and 1500 seconds, respectively, at a flow rate of 50 μL/min. Between antibody samples the surface of the flow cell was regenerated with 10 mM glycine, pH 1.5 for 30 seconds at a flow rate of 50 μL/min.
(§4) The data was aligned, double referenced, and fit using SCRUBBER 2™ software (BioLogic Software, Pty, Australia), which is a Surface Plasmon Resonance (SPR) data processing and non-linear least squares regression fitting program.

[14] = target: T6, extracellular domain of a recombinant cynomolgus (rcyno) PD1 (cynomolgus monkey, UniProt B0LAJ3 25-170); assay: as above
T6 construct: also called recombinant cynomolgus PD1
Procedure: as §3, §4

T6 sequence (B0LAJ3 entry or part of it limits assumed): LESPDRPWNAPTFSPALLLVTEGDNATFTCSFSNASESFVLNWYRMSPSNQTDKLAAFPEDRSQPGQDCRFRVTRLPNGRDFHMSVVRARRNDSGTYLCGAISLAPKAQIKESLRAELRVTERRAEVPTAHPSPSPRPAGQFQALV
T3 sequence (Q15116 25-288): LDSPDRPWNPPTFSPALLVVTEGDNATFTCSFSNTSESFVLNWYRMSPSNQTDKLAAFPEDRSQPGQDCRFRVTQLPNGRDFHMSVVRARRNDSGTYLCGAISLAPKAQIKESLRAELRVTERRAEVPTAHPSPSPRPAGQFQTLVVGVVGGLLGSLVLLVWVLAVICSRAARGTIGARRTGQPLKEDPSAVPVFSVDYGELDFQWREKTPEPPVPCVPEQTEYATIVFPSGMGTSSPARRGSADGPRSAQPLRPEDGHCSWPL
T5 sequence (Q15116 25-170): as the sequence (B0LAJ3 entry or part of it limits assumed) above, with E2D, A10P, L19V, A35T, R75Q, A144T counted along it
T1 sequence (P16410 36-223): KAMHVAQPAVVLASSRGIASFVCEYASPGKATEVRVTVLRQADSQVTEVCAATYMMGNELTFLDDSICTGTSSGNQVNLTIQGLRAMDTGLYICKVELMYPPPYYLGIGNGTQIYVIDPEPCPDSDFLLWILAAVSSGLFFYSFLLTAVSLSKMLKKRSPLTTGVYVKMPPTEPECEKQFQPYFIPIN
T2 sequence (P16410 36-161): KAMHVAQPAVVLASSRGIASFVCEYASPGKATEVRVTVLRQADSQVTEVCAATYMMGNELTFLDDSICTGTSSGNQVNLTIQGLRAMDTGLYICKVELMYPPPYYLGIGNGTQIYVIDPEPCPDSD
T4 sequence (Q15116 25-170): as the sequence (B0LAJ3 entry or part of it limits assumed) above, with E2D, A10P, L19V, A35T, R75Q, A144T counted along it

B1: anti-hCTLA4 antibody 10D4 (antibody, human IgG1, V domains shown)
VH: QVQLVESGGGVVEPGRSLRLSCTASGFTFSSYGMHWVRQAPGKGLEWVAVIWYHPSKKDYADSAKGRFTISRDNSKNTLYLQMNSLRAEDTAVYYCARAGLLGYFDYWGQGTLVTVSS
VL: EIVLTQSPGTLSLSPGERATLSCRASQSVTSYLAWYQQKPGQAPRPLIYGVSSRATGIPDRFSGSGSGTDFTLTISRLEPEDFAVYYCQQYGRYPFTFGPGTKVDIK
notes: unaltered form; also called Anti-CTLA4 10D4; anti-hCTLA4 #10D4
IC50, luciferase (RLU), CTLA4 Dual-Cell Reporter Assay (Jurkat cells with hCTLA4 plus Raji cells) [1]: 6.12 nM | IC50, luciferase reporter assay (Jurkat cells with CTLA4 plus Raji cells with hCD80 and hCD86) [2]: 2.12 nM | EC50 [3]: 0.085 nM | IC50 [4]: 3.3 nM

B2: altered anti-hCTLA4 11F4 (antibody, human IgG1, kappa, V domains shown)
VH: QVQLVESGGGVVEPGRSLRLSCAASGFTFSSYGMHWVRQAPGKRLEWVAVIWYKPSEKDYADSAKGRFTISRDNSKNTLYLQMNSLRAEDTAVYYCARGGLLGYFDYWGDGTLVTVSS
VL: EIVLTQSPGTLSLSPGERATLSCRASQSINSYLAWYQQKPGQRPRPLIYGVSSRATGIPDRFSGSGSGTDFTLTISRLEPEDFAVYYCQQYGRYPFTFGDGTKVDIKR
IC50, luciferase reporter assay (Jurkat cells with CTLA4 plus Raji cells with hCD80 and hCD86) [5]: 8.68 nM

B3: altered anti-hCTLA4 10D4 (antibody, human IgG1, kappa, V domains shown)
VH: QVQLVESGGGVVEPGRSLRLSCTASGFTFSSYGMHWVRQAPGKRLEWVAVIWYHPSKKDYADSAKGRFTISRDNSKNTLYLQMNSLRAEDTAVYYCARAGLLGYFDYWGDGTLVTVSS
VL: EIVLTQSPGTLSLSPGERATLSCRASQSVTSYLAWYQQKPGQRPRPLIYGVSSRATGIPDRFSGSGSGTDFTLTISRLEPEDFAVYYCQQYGRYPFTFGDGTKVDIKR
IC50, luciferase reporter assay (Jurkat cells with CTLA4 plus Raji cells with hCD80 and hCD86) [2]: 3.75 nM

B4: anti-hCTLA4 antibody 11F4 (antibody, human IgG1, V domains shown)
VH: QVQLVESGGGVVEPGRSLRLSCAASGFTFSSYGMHWVRQAPGKGLEWVAVIWYKPSEKDYADSAKGRFTISRDNSKNTLYLQMNSLRAEDTAVYYCARGGLLGYFDYWGQGTLVTVSS
VL: EIVLTQSPGTLSLSPGERATLSCRASQSINSYLAWYQQKPGQAPRPLIYGVSSRATGIPDRFSGSGSGTDFTLTISRLEPEDFAVYYCQQYGRYPFTFGPGTKVDIK
notes: unaltered form; also called Anti-CTLA4 11F4; anti-hCTLA4 #11F4
IC50, luciferase (RLU), CTLA4 Dual-Cell Reporter Assay (Jurkat cells with hCTLA4 plus Raji cells) [1]: 7.39 nM | IC50, luciferase reporter assay (Jurkat cells with CTLA4 plus Raji cells with hCD80 and hCD86) [5]: 4.8 nM | EC50 [3]: 0.158 nM | IC50 [4]: 7.5 nM

B5: anti-hPD1 antibody #1 (antibody, V domains shown)
VH: QVQLVQSGAEVKKPGASVKVSCKASGYTFTNYWIHWVRQAPGQGLEWMGEIDPYDSYTNYNQKFKGRVTMTVDKSTSTVYMELSSLRSEDTAVYYCARPGFTYGGMDFWGQGTLVTVSS
VL: DIQMTQSPSSLSASVGDRVTITCKSSQSLFNSGNQKNYLAWYQQKPGKVPKLLIYGASTRDSGVPYRFSGSGSGTDFTLTISSLQPEDVATYYCQNDHYYPYTFGGGTKVEIKR
notes: also called Anti-hPD1 #1; Anti-PD1 #1
IC50, luciferase (RLU), PD1 dual cell reporter assay (Jurkat cells with hPD1 plus CHO-K1 cells with hPDL1) [6]: 1.18 nM | EC50 for CD4+ T cell proliferation (pM), mixed lymphocyte reaction [7]: 135 pM | EC50 for CD8+ T cell proliferation (pM), mixed lymphocyte reaction [7]: 323 pM | EC50 for IFN gamma production (pM), mixed lymphocyte reaction [7]: 890 pM | IC50, luciferase reporter assay (Jurkat cells with hPD1 plus CHO cells with hPDL1) [8]: 2.49 nM | IC50, luciferase reporter assay (Jurkat cells with hPD1 plus CHO cells with hPDL1) [9]: 2.5 nM | EC50 [10]: 0.918 nM | EC50 [11]: 1.37 nM | IC50 [12]: 0.197 nM | Kd [13]: 2.18 nM | koff [13]: 0.000133 s⁻¹ | kon [13]: 60900 M⁻¹ s⁻¹ | Kd [14]: 5.06 nM | koff [14]: 0.000597 s⁻¹ | kon [14]: 118000 M⁻¹ s⁻¹
